Test results as given in paper PMC12365614, “Bipartite chromatin recognition by Hop1 from two diverged Holozoa”.

T1: P. miniata Hop1 CBR R463A (Patiria miniata, UniProt A0A913ZKG6 352-499, R463A)
T1 sequence: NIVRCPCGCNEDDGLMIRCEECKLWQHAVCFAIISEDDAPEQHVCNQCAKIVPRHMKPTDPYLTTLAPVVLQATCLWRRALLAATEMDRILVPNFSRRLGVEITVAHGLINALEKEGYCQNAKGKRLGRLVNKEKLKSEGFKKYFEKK

T2: P. miniata Hop1 CBR R477A (Patiria miniata, UniProt A0A913ZKG6 352-499, R477A)
T2 sequence: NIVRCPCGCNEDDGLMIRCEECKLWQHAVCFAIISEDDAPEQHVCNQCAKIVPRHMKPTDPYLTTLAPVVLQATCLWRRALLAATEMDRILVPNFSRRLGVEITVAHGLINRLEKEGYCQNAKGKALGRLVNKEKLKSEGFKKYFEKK

T3: P. miniata Hop1 CBR WT (GST) (Patiria miniata, UniProt A0A913ZKG6 352-499)
T3 sequence: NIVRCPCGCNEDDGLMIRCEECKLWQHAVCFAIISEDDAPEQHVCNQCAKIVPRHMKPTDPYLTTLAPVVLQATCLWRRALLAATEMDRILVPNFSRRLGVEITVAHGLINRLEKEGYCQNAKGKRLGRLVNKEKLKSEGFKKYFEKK


Experiments:
[1] = test system: S. mansoni Hop1 CBR WT (Schistosoma mansoni); test: fluorescence polarization; conditions: FP: 20 mM Tris-HCl pH 8, 100 mM Na glutamate, 5 mM MgCl2, 3% glycerol, 0.5 mM BME, 50 nM DNA, 4 C 30 min; EMSA: 20 mM Hepes pH 7, 100 mM NaCl, 100 uM ZnCl2, 10%
[2] = molecular target: T1, P. miniata Hop1 CBR R463A; test: fluorescence polarization; FP: 20 mM Tris-HCl pH 8, 100 mM Na glutamate, 5 mM MgCl2, 3% glycerol, 0.5 mM BME, 50 nM DNA, 4 C 30 min; EMSA: 20 mM Hepes pH 7, 100 mM NaCl, 100 uM ZnCl2, 10% glycerol, 2 mM BME, 4 C 60 min; conditions: protein: recombinant; tags: N-terminal His6-GST (uncleaved); label: 5' 6-FAM on strand 1; blunt
[3] = molecular target: T2, P. miniata Hop1 CBR R477A; test: as above; conditions: protein: recombinant; tags: N-terminal His6-GST (uncleaved); label: 5' 6-FAM on strand 1; blunt
[4] = molecular target: T3, P. miniata Hop1 CBR WT (GST); test: as above; conditions: protein: recombinant; tags: N-terminal His6-GST (uncleaved); label: 5' 6-FAM on strand 1; blunt

| Molecule | Kd [1] | binding result [2] | binding result [3] | Kd [4] |
| --- | --- | --- | --- | --- |
| CTTATATCTGAATAGTCAGT (double strand) [20-bp FAM duplex] | 16 µM | – | – | – |
| 20-bp FAM duplex (dsDNA) DNA 1: CTTATATCTGAATAGTCAGT DNA 2: ACTGACTATTCAGATATAAG | – | no binding | no binding | 16 µM |
